According to US20080193980A1:

Biological target: Human IgG
Experiment: plate coated with human IgG, luminescence (Imax) after CaCl2

Substance “Protein A-AQ fusion protein (from UniProt P02976 37-307; P07164 9-196)” has a concentration at which the luminescence intensity reached a plateau of 10 ng/mL.
